This is an account of results in the supplement of paper PMC5998384.

Data set [1] concerns HeLa Kyoto. Briefly: solubility in G1/S (NP-40 vs SDS abundance) (log2 ratio); higher = more soluble. The note with it: cell cycle stage: G1/S.
Data set [2] relates to HeLa Kyoto. Briefly: melting temperature (median over replicates), in situ; higher = more thermally stable.
Data set [3] deals with HeLa Kyoto. The data set is described as follows: thermal stability score vs G1/S (z-score of summed log2 fold changes over temperatures); higher = more thermally stable than in G1/S.
Data set [4] deals with HeLa Kyoto. Briefly: solubility change mitosis vs G1/S (difference of NP-40 vs SDS log2 ratios) (log2 ratio difference); higher = more soluble in mitosis.
[5] abbreviates: cell cycle stage: early G1 (4.5 h after nocodazole release).
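Wherever melting temperature (median over replicates), in situ is given: HeLa Kyoto cells synchronized by double thymidine or nocodazole block, proteins quantified by TMT10plex mass spectrometry, three independent biological replicates.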
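Wherever solubility change mitosis vs G1/S (difference of NP-40 vs SDS log2 ratios) is given: synchronized HeLa Kyoto cells (double thymidine block for G1/S, nocodazole release for mitosis), protein amounts in NP-40 versus SDS lysates quantified by mass spectrometry, three biological replicates.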
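Wherever solubility in G1/S (NP-40 vs SDS abundance) is given: HeLa Kyoto cells arrested at G1/S by double thymidine block, proteins quantified by TMT10plex mass spectrometry in mild NP-40 versus SDS extracts, three biological replicates.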
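Wherever thermal stability score vs G1/S (z-score of summed log2 fold changes over temperatures) is given: synchronized HeLa Kyoto cells, proteins quantified by TMT10plex mass spectrometry, three biological replicates, mitosis taken 0.5 h after nocodazole release, G1/S directly after double thymidine block.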

As to “MAAAEPSPRRVGFVGAGRMAGAIAQGLIRAGKVEAQHILASAPTDRNLCHFQALGCRTTHSNQEVLQSCLLVIFATKPHVLPAVLAEVAPVVTTEHILVSVAAGVSLSTLEELLPPNTRVLRVLPNLPCVVQEGAIVMARGRHVGSSETKLLQHLLEACGRCEEVPEAYVDIHTGLSGSGVAFVCAFSEALAEGAVKMGMPSSLAHRIAAQTLLGTAKMLLHEGQHPAQLRSDVCTPGGTTIYGLHALEQGGLRAATMSAVEAATCRAKELSRK [PYCRL]”, the “solubility in G1/S (log2)” value with HeLa Kyoto [1] was 0.155. Moreover, the melting temperature with HeLa Kyoto [2] (cell cycle stage: G1/S) is 53.5 °C; in the data set on HeLa Kyoto [2] (cell cycle stage: mitosis) it was 55.3 °C. The thermal stability score in the data set with HeLa Kyoto [3] (setting [5]) is -1.28; in the data set on HeLa Kyoto [3] (cell cycle stage: mitosis), -1.85. The “solubility change mitosis (log2)” value in the data set on HeLa Kyoto [4] came to 0.0528.

With “MAAAGAAATHLEVARGKRAALFFAAVAIVLGLPLWWKTTETYRASLPYSQISGLNALQLRLMVPVTVVFTRESVPLDDQEKLPFTVVHEREIPLKYKMKIKCRFQKAYRRALDHEEEALSSGSVQEAEAMLDEPQEQAEGSLTVYVISEHSSLLPQDMMSYIGPKRTAVVRGIMHREAFNIIGRRIVQVAQAMSLTEDVLAAALADHLPEDKWSAEKRRPLKSSLGYEITFSLLNPDPKSHDVYWDIEGAVRRYVQPFLNALGAAGNFSVDSQILYYAMLGVNPRFDSASSSYYLDMHSLPHVINPVESRLGSSAASLYPVLNFLLYVPELAHSPLYIQDKDGAPVATNAFHSPRWGGIMVYNVDSKTYNASVLPVRVEVDMVRVMEVFLAQLRLLFGIAQPQLPPKCLLSGPTSEGLMTWELDRLLWARSVENLATATTTLTSLAQLLGKISNIVIKDDVASEVYKAVAAVQKSAEELASGHLASAFVASQEAVTSSELAFFDPSLLHLLYFPDDQKFAIYIPLFLPMAVPILLSLVKIFLETRKSWRKPEKTD [PIGS]”, the “solubility in G1/S (log2)” value with HeLa Kyoto [1] came out at 0.0826. Further, the results for the melting temperature in the data set with HeLa Kyoto [2] (cell cycle stage: G1/S) and in the data set with HeLa Kyoto [2] (cell cycle stage: mitosis) were 52.6 °C and 53.1 °C, respectively. In addition, the thermal stability score in the data set with HeLa Kyoto [3] (setting [5]) is 2.4; in the data set on HeLa Kyoto [3] (cell cycle stage: mitosis), 4.4. Also, in the data set on HeLa Kyoto [4], the “solubility change mitosis (log2)” value was -0.13.

In the case of “MAAAKVALTKRADPAELRTIFLKYASIEKNGEFFMSPNDFVTRYLNIFGESQPNPKTVELLSGVVDQTKDGLISFQEFVAFESVLCAPDALFMVAFQLFDKAGKGEVTFEDVKQVFGQTTIHQHIPFNWDSEFVQLHFGKERKRHLTYAEFTQFLLEIQLEHAKQAFVQRDNARTGRVTAIDFRDIMVTIRPHVLTPFVEECLVAAAGGTTSHQVSFSYFNGFNSLLNNMELIRKIYSTLAGTRKDVEVTKEEFVLAAQKFGQVTPMEVDILFQLADLYEPRGRMTLADIERIAPLEEGTLPFNLAEAQRQKASGDSARPVLLQVAESAYRFGLGSVAGAVGATAVYPIDLVKTRMQNQRSTGSFVGELMYKNSFDCFKKVLRYEGFFGLYRGLLPQLLGVAPEKAIKLTVNDFVRDKFMHKDGSVPLAAEILAGGCAGGSQVIFTNPLEIVKIRLQVAGEITTGPRVSALSVVRDLGFFGIYKGAKACFLRDIPFSAIYFPCYAHVKASFANEDGQVSPGSLLLAGAIAGMPAASLVTPADVIKTRLQVAARAGQTTYSGVIDCFRKILREEGPKALWKGAGARVFRSSPQFGVTLLTYELLQRWFYIDFGGVKPMGSEPVPKSRINLPAPNPDHVGGYKLAVATFAGIENKFGLYLPLFKPSVSTSKAIGGGP [SLC25A13]”, the “solubility in G1/S (log2)” value in the data set with HeLa Kyoto [1] stood at 0.0358. Further, the melting temperature with HeLa Kyoto [2] (cell cycle stage: G1/S) and in the data set on HeLa Kyoto [2] (cell cycle stage: mitosis) was 55.3 °C each time. The thermal stability score with HeLa Kyoto [3] (setting [5]) is -1.62; in the data set with HeLa Kyoto [3] (cell cycle stage: mitosis), -1.29. The “solubility change mitosis (log2)” value with HeLa Kyoto [4] is -0.142.

In the case of “MAAALGASGGAGAGDDDFDQFDKPGAERSWRRRAADEDWDSELEDDLLGEDLLSGKKNQSDLSDEELNDDLLQSDNEDEENFSSQGVTISLNATSGMVTSFELSDNTNDQSGEQESEYEQEQGEDELVYHKSDGSELYTQEYPEEGQYEGHEAELTEDQIEYVEEPEEEQLYTDEVLDIEINEPLDEFTGGMETLELQKDIKEESDEEEEDDEESGRLRFKTERKEGTIIRLSDVTRERRNIPETLELSAEAKAALLEFEERERQHKQGRYSSRRGGRRGGPLMCRGVGDQRRESTERGRMKDHRPALLPTQPPVVPQAPPPPPPPPQQQPIRSLFQPQPLQPLLPVQHPHHPSPPQGMHMPPQLETPRMMMTPPPVTPQQPKNIHINPHFKGTVVTPVQVPLLPVPSQPRPAVGPQRFPGPPEFPQHTPGPVPNSFSQPPRLPLQDQWRAPPPPQDRDPFFLGVSGEPRFPSHLFLEQRSPPPPPPPPTLLNSSHPVPTQSPLPFTQPGPAFNQQGQQPVFPRERPVRPALQPPGPVGILHFSQPGSATTRPFIPPRQPFLPGPGQPFLPTHTQPNLQGPLHPPLPPPHQPQPQQPQQQPPPQHQPPHQPPHQPPPQHQPPPQHPPQHPPQHQHHHHHHHLSVPPPPLMPMSQPQFRPHVQTAQPQASSSRMQCPQRQGLRHNTTSQNVSKRPMQQMQPTAPRNSNLRELPIAPSHVIEMSSSRCSATPSAQVKPIVSASPPSRAVAGSRSSQGKTEVKVKPASPVAQPKEEAKTETEFPDEDEETRLYRLKIEEQKRLREEILKQKELRRQQQAGARKKELLERLAQQQQQLYAPPPPAEQEEQALSPSPTNGNPLLPFPGAQVRQNVKNRLLVKNQDVSISNVQPKTSNFVPSSANMQYQGQQMKALKHLRQTRTVPQSQTQPLHKVLPIKPADVEEPAVPQTPRVASIQGRPQDTKPGVKRTVTHRTNSGGGDGPHISSKVRVIKLSGGGGESDGFFHPEGQPQRLPQPPEVGPQPARKVTLTRGGLQQPPHLPAGPHAHSPVPPGIKSIQGIHPAKKAIMHGRGRGVAGPMGRGRLMPNKQNLRVVECKPQPCVVSVEGLSSSTTDAQLKSLLMSVGPIQSLQMLPQQRKAIAKFKEPAHALAFQQKFHRHMIDLSHINVALIVE [RBM33]”, in the data set on HeLa Kyoto [1], the “solubility in G1/S (log2)” value was -0.022. Also, the figures for the melting temperature with HeLa Kyoto [2] (cell cycle stage: G1/S) and in the data set on HeLa Kyoto [2] (cell cycle stage: mitosis) were 48.8 °C and 50.8 °C, respectively. Moreover, the thermal stability score in the data set with HeLa Kyoto [3] (setting [5]) turned out to be 0.706; in the data set on HeLa Kyoto [3] (cell cycle stage: mitosis), 2.36. Further, the “solubility change mitosis (log2)” value in the data set on HeLa Kyoto [4] is -0.145.
